# Earlier results, collected in PMC7887631.
# Target: Prion protein (PrPC) (UniProt P04156)
substance,measurement,value
STI1 (from UniProt P31948),Kd,0.1 µM
